Results on 3 substances are retold here after US20260124223A1, “CANCER IMMUNOTHERAPIES” (Northwestern University, priority 2022, published 2026).

Assay [1] addresses human FcγRIIIA V158 protein (his-tagged) (human) (UniProt P08637). Nature of the assay: SPR (Biacore T200), his-tagged receptor captured on anti-His CM5 chip, antibody injected. A general note: In SPR one partner is held on a chip, and binding of the other changes the refractive index at the surface.
The target in assay [2] is human FcγRIIIA F158 protein (his-tagged) (human) (UniProt P08637). Described as above.
human FcγRIIIA F158 protein (his-tagged) (human), sequence (P08637 17-208 limits assumed): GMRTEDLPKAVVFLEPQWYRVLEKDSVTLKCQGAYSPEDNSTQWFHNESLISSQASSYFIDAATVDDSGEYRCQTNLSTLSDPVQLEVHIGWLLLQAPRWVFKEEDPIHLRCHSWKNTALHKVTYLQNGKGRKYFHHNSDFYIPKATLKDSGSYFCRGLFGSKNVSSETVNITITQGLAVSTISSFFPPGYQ
Assay [3] has as its target human FcγRIIB protein (his-tagged) (human) (UniProt P31994). Described as above.
The target in assay [4] is mouse FcγRIIB protein (his-tagged) (mouse) (UniProt P08101). The description is as above.
mouse FcγRIIB protein (his-tagged) (mouse), sequence (P08101 30-210 limits assumed): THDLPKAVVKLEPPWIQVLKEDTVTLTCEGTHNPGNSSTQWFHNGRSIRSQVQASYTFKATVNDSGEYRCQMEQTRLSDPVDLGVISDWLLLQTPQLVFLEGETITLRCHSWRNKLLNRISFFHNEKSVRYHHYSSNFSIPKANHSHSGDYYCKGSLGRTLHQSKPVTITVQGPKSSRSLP
In assay [5] the target is mouse FcγRIV protein (his-tagged) (mouse). The description is as above.
mouse FcγRIV protein (his-tagged) (mouse), sequence (A0A0B4 entry or part of it limits assumed): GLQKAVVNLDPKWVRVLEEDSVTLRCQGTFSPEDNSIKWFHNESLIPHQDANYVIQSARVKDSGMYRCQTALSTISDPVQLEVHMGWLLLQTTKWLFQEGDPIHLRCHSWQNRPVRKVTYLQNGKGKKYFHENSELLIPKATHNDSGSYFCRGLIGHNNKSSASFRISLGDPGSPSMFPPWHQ
The target is the same in assay [6]. Nature of the assay: ratio of SPR binding to mouse FcγRIV against inhibitory mouse FcγRIIB.

Usually Kd stands for the constant that tells how readily two partners part at equilibrium.

human FcγRIIIA V158 protein (his-tagged) (human), sequence (P08637 17-208 F176V limits assumed): as the sequence (P08637 17-208 limits assumed) above, with F160V counted along it
human FcγRIIB protein (his-tagged) (human), sequence (P31994 43-217 limits assumed): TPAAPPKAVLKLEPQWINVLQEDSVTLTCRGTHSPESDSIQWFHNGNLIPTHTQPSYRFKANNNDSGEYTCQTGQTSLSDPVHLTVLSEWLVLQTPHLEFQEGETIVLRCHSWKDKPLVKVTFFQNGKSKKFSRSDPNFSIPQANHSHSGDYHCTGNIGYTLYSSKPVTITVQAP

Regarding “Fc-enhanced anti-human CTLA-4 antibody (hIgG1.DLE) (from UniProt P01857 1-330)”, the Kd in assay [1] worked out at 2.76 nM; in assay [2], 2.83 nM; in assay [3], 3230 nM.
In the case of “Fc-enhanced mouse reactive anti-CTLA4 antibody (clone 9D9, mIgG2b.DLE) (from UniProt P01867 1-335)”, the results for the equilibrium dissociation constant (Kd) in assay [4] and in assay [5] were 7110 nM and 1.7 nM, respectively. The A/I ratio (IV/IIB) in assay [6] came to 4180.
On to “anti-mouse CTLA-4 antibody, clone 9D9, mouse IgG2b (unmodified)”, for which the dissociation constant (Kd) worked out at 5800 nM in assay [4] and 61.3 nM in assay [5]. The A/I ratio (IV/IIB) in assay [6] is 95.
